Measurements reported in patent publication US20030138873A1, “Tissue engineered cartilage for drug discovery” (priority 2002, published 2003).

Experiments:
[1] = tested on: engineered cartilage tissue; test: Cartilage matrix turnover measured without radiolabelling (PG content by DMMB method); type: cell-based, bovine
Description: (§1) Engineered Cartilage Tissue Formation: Engineered cartilage tissue was prepared as described in U.S. Pat. No. 6,197,061. Briefly, bovine articular chondrocytes were isolated from steer (14-18 months) and cultured in beads of 1.2% low viscosity alginate (Keltone LV, Kelco) at 4 million cells/ml in daily changes of medium containing 20% FBS, 25 μg/ml ascorbate and 10 μg/ml gentamicin, as described above in Mok, et al. On day 7, beads were dissolved by incubation for 20 minutes in 55 mM NaCitrate in 150 mM NaCl. The cells with their CM (cellular matrix) were recovered by mild centrifugation. The cells with their CM were resuspended in complete medium and seeded onto a tissue culture insert (0.4 μm pore size; 23 mm diameter, Falcon). After 7 and 21 days in culture, the de novo formed tissue was separated from the porous membrane and 4 mm diameter discs were punched out using a skin biopsy punch.
Discs of engineered cartilage tissue was punched out from engineered cartilage tissue on day 7 and cultured for 5 days in complete medium with/without IL-1α (1 ng/ml). Engineered cartilage tissue was obtained as described above. On days 1, 2, 3 and 5, the discs were harvested and digested with papain. After digestion the contents of sulfated PG and DNA were measured by the DMMB method and Hoechst 33258-dye method, respectively. […]

[2] = tested on: engineered cartilage tissue; test: Cartilage matrix turnover measured using radiolabelling (35S-proteoglycan chase); type: cell-based, bovine; conditions: for T½ of 35S-PGs in the tissue (loss of 35S-PGs) / T½ of 35S-PGs, bimodal rate of disappearance from the tissue: IL-1α 1 ng/ml; for T½ of 35S-PGs in the tissue (loss of 35S-PGs): 7-day chase; for T½ of 35S-PGs, bimodal rate of disappearance from the tissue: double exponential decay fit
Description: as §1
Discs of engineered cartilage tissue were punched out from engineered cartilage tissue on day 7 and 21 and were incubated for 16 h in complete medium containing ^35S-sulfate (20 μCi/ml). After washing to remove unincorporated radioisotope, the discs were cultured for 7 days in isotope-free medium with or without IL-1α (1 ng/ml). The medium in all cases was changed and collected for the measurement of ^35S-labeled proteoglycans (^35S-PGs). At various times, discs were collected and the content of ^35S-PGs in each disc and the corresponding spent medium fraction was measured by a rapid filtration assay (4). For each set of conditions (i.e. with or without IL-1α) the amount of radiolabeled PGs remaining in each matrix pool was plotted against time of chase to measure the average half-life of ^35S-PGs in each compartment. The data were fitted to the double exponential decay equation: y=ae^−bx+ce^−d+e and the half-life calculated based on b and d. Mok, et al., Aggrecan synthesized by mature bovine chondrocytes suspended in alginate: Identification of two distinct metabolic matrix pool, Biol. Chem., 269, 33021-33027 (1994)

[3] = tissue radiolabeled on day 7 [1W]
[4] = tissue radiolabeled on day 21 [3W]

B1: IL-1: cytokine interleukin-1 (IL-1α), known modulator inducing cartilage matrix degradation, used at 1 ng/ml (protein, UniProt P01583 113-271, looked up)
Interleukin-1 alpha: SAPFSFLSNVKYNFMRIIKYEFILNDALNQSIIRANDQYLTAAALHNLDEAVKFDMGAYKSSKDDAKITVILRISKTQLYVTAQDEDQPVLLKEMPEIPKTITGSETNLLFFWETHGTKNYFTSVAHPNLFIATKQDYWVCLAGGPPSITDFQILENQA
[1]; IL-1 at 1 ng/ml, single day of treatment, day 7 discs
  loss of the PGs from the engineered cartilage tissue: 50%
[1]; within a single day after treatment with IL-1
  loss of proteoglycan content of engineered cartilage matrix: roughly half
[2]; [3]
  T½ of 35S-PGs in the tissue (loss of 35S-PGs): 41.5 h
  T½ of 35S-PGs, bimodal rate of disappearance from the tissue: 3.6 h
[2]; [4]
  T½ of 35S-PGs in the tissue (loss of 35S-PGs): 49.9 h
  T½ of 35S-PGs, bimodal rate of disappearance from the tissue: 35.5 h
[2]; addition of IL-1 to the medium (1 ng/ml)
  appearance in the medium of 35S-PGs: rapid increase
